For 40 variants, abundance fitness results are on record in the Human Domainome abundance scans (Beltran et al. 2025).

First the molecules themselves.
B1: RNA-binding E3 ubiquitin-protein ligase MEX3C, residues 325 to 391; numbered along this chain, Q5U5Q3 (parent)
chain: GQTTVQVRVPYRVVGLVVGPKGATIKRIQQQTHTYIVTPSRDKEPVFEVTGMPENVDRAREEIEMHI

± gives the uncertainty stated by the source.

This series covers variants of B1. Kind of series: abundance fitness (aPCA) (normalised: wild type 0, dead -1); higher = more abundant; growth selection in yeast, the domain comes from the species named. Conditions: Homo sapiens.
As for GQTTVQVRVPYRVVGLIVGPKGATIKRIQQQTHTYIVTPSRDKEPVFEVTGMPENVDRAREEIEMHI, the abundance fitness amounted to 0.013 ± 0.099.

Regarding GQTTVQVRVPYRVVGLQVGPKGATIKRIQQQTHTYIVTPSRDKEPVFEVTGMPENVDRAREEIEMHI, the abundance fitness is -0.529 ± 0.17. Regarding GQTTVQVRVPYRVVGLAVGPKGATIKRIQQQTHTYIVTPSRDKEPVFEVTGMPENVDRAREEIEMHI, the abundance fitness is -0.436 ± 0.076.

Turning to GQTTVQVRVPYRVVGLYVGPKGATIKRIQQQTHTYIVTPSRDKEPVFEVTGMPENVDRAREEIEMHI, the abundance fitness was -0.505 ± 0.11. Take GQTTVQVRVPYRVVGLMVGPKGATIKRIQQQTHTYIVTPSRDKEPVFEVTGMPENVDRAREEIEMHI: the abundance fitness was -0.741 ± 0.17. GQTTVQVRVPYRVVGLHVGPKGATIKRIQQQTHTYIVTPSRDKEPVFEVTGMPENVDRAREEIEMHI: the abundance fitness was -0.149 ± 0.13. With GQTTVQVRVPYRVVGLWVGPKGATIKRIQQQTHTYIVTPSRDKEPVFEVTGMPENVDRAREEIEMHI, the abundance fitness was -0.635 ± 0.084. To GQTTVQVRVPYRVVGLKVGPKGATIKRIQQQTHTYIVTPSRDKEPVFEVTGMPENVDRAREEIEMHI belongs -0.533 ± 0.12. On to GQTTVQVRVPYRVVGLEVGPKGATIKRIQQQTHTYIVTPSRDKEPVFEVTGMPENVDRAREEIEMHI, for which the abundance fitness is -0.537 ± 0.085. Regarding GQTTVQVRVPYRVVGLVFGPKGATIKRIQQQTHTYIVTPSRDKEPVFEVTGMPENVDRAREEIEMHI, the abundance fitness is -0.374 ± 0.13. With GQTTVQVRVPYRVVGLVCGPKGATIKRIQQQTHTYIVTPSRDKEPVFEVTGMPENVDRAREEIEMHI, the abundance fitness was -0.258 ± 0.083.

As for GQTTVQVRVPYRVVGLVAGPKGATIKRIQQQTHTYIVTPSRDKEPVFEVTGMPENVDRAREEIEMHI, the abundance fitness was -0.433 ± 0.08. As to GQTTVQVRVPYRVVGLVHGPKGATIKRIQQQTHTYIVTPSRDKEPVFEVTGMPENVDRAREEIEMHI, the abundance fitness was -0.456 ± 0.15.

As to GQTTVQVRVPYRVVGLVDGPKGATIKRIQQQTHTYIVTPSRDKEPVFEVTGMPENVDRAREEIEMHI, the abundance fitness was -0.367 ± 0.13.

As to GQTTVQVRVPYRVVGLVIGPKGATIKRIQQQTHTYIVTPSRDKEPVFEVTGMPENVDRAREEIEMHI, the abundance fitness came to 0.019 ± 0.16. For the variant GQTTVQVRVPYRVVGLVGGPKGATIKRIQQQTHTYIVTPSRDKEPVFEVTGMPENVDRAREEIEMHI, the abundance fitness was -0.794 ± 0.08. For GQTTVQVRVPYRVVGLVEGPKGATIKRIQQQTHTYIVTPSRDKEPVFEVTGMPENVDRAREEIEMHI, the abundance fitness was -0.284 ± 0.062. As for GQTTVQVRVPYRRVGLVVGPKGATIKRIQQQTHTYIVTPSRDKEPVFEVTGMPENVDRAREEIEMHI, the abundance fitness is -0.25 ± 0.05. The same measure for GQTTVQVRVPYRNVGLVVGPKGATIKRIQQQTHTYIVTPSRDKEPVFEVTGMPENVDRAREEIEMHI: -0.207 ± 0.11.

For the variant GQTTVQVRVPYRWVGLVVGPKGATIKRIQQQTHTYIVTPSRDKEPVFEVTGMPENVDRAREEIEMHI, the abundance fitness is -0.098 ± 0.074.

Consider GQTTVQVRVPYRTVGLVVGPKGATIKRIQQQTHTYIVTPSRDKEPVFEVTGMPENVDRAREEIEMHI, for which the abundance fitness was -0.006 ± 0.085. The same measure for GQTTVQVRVPYRYVGLVVGPKGATIKRIQQQTHTYIVTPSRDKEPVFEVTGMPENVDRAREEIEMHI: -0.073 ± 0.14. For GQTTVQVRVPYRPVGLVVGPKGATIKRIQQQTHTYIVTPSRDKEPVFEVTGMPENVDRAREEIEMHI, the abundance fitness is -0.809 ± 0.24. The same measure for GQTTVQVRVPYRQVGLVVGPKGATIKRIQQQTHTYIVTPSRDKEPVFEVTGMPENVDRAREEIEMHI: 0.169 ± 0.085; for GQTTVQVRVPYRSVGLVVGPKGATIKRIQQQTHTYIVTPSRDKEPVFEVTGMPENVDRAREEIEMHI: 0.127 ± 0.06; for GQTTVQVRVPYRVMGLVVGPKGATIKRIQQQTHTYIVTPSRDKEPVFEVTGMPENVDRAREEIEMHI: -0.185 ± 0.068. For the variant GQTTVQVRVPYRVSGLVVGPKGATIKRIQQQTHTYIVTPSRDKEPVFEVTGMPENVDRAREEIEMHI, the abundance fitness was -0.603 ± 0.1. Consider GQTTVQVRVPYRVWGLVVGPKGATIKRIQQQTHTYIVTPSRDKEPVFEVTGMPENVDRAREEIEMHI, for which the abundance fitness is -0.349 ± 0.082.

With GQTTVQVRVPYRVFGLVVGPKGATIKRIQQQTHTYIVTPSRDKEPVFEVTGMPENVDRAREEIEMHI, the abundance fitness was -0.315 ± 0.098. The same measure for GQTTVQVRVPYRVIGLVVGPKGATIKRIQQQTHTYIVTPSRDKEPVFEVTGMPENVDRAREEIEMHI: 0.114 ± 0.17. As for GQTTVQVRVPYRVQGLVVGPKGATIKRIQQQTHTYIVTPSRDKEPVFEVTGMPENVDRAREEIEMHI, the abundance fitness is -0.881 ± 0.19. Consider GQTTVQVRVPYRVGGLVVGPKGATIKRIQQQTHTYIVTPSRDKEPVFEVTGMPENVDRAREEIEMHI, for which the abundance fitness was -0.746 ± 0.095. As to GQTTVQVRVPYRVDGLVVGPKGATIKRIQQQTHTYIVTPSRDKEPVFEVTGMPENVDRAREEIEMHI, the abundance fitness is -0.529 ± 0.12. In the case of GQTTVQVRVPYRVYGLVVGPKGATIKRIQQQTHTYIVTPSRDKEPVFEVTGMPENVDRAREEIEMHI, the abundance fitness was -0.51 ± 0.18. With GQTTVQVRVPYRVTGLVVGPKGATIKRIQQQTHTYIVTPSRDKEPVFEVTGMPENVDRAREEIEMHI, the abundance fitness is -0.524 ± 0.13. Take GQTTVQVRVPYRVEGLVVGPKGATIKRIQQQTHTYIVTPSRDKEPVFEVTGMPENVDRAREEIEMHI: the abundance fitness was -0.51 ± 0.095. Regarding GQTTVQVRVPYRVPGLVVGPKGATIKRIQQQTHTYIVTPSRDKEPVFEVTGMPENVDRAREEIEMHI, the abundance fitness is -0.703 ± 0.16. The same measure for GQTTVQVRVPYRVRGLVVGPKGATIKRIQQQTHTYIVTPSRDKEPVFEVTGMPENVDRAREEIEMHI: -0.372 ± 0.052; for GQTTVQVRVPYRVCGLVVGPKGATIKRIQQQTHTYIVTPSRDKEPVFEVTGMPENVDRAREEIEMHI: -0.89 ± 0.24.

GQTTVQVRVPYRVKGLVVGPKGATIKRIQQQTHTYIVTPSRDKEPVFEVTGMPENVDRAREEIEMHI: the abundance fitness was -0.636 ± 0.14.
